Measurements: patent US20140205612A1

Legend:
Assay in all cases: cell-based or functional assay
[1] = target: JR-CSF(Y318A) Env on pseudovirus (HIV-1 JR-CSF) (UniProt P20871)
[2] = target: HIV-1 JR-CSF Env on pseudovirus (HIV-1 JR-CSF) (UniProt P20871)
[3] = target: 92RW020 Env on pseudovirus (HIV-1 92RW020)
[4] = target: ADA Env on pseudovirus (HIV-1 ADA)
[5] = target: JR-CSF(1309A) Env on pseudovirus (HIV-1 JR-CSF) (UniProt P20871)
[6] = target: JR-FL(E168K) Env on pseudovirus (HIV-1 JR-FL)

Row | Binder | IC50 (ug/ml), pseudovirus neutralization, TZM-bl assay [1] [µg/mL] | IC50 (ug/ml), pseudovirus neutralization, TZM-bl assay [2] [µg/mL] | IC50 (ug/ml), pseudovirus neutralization, TZM-bl assay [3] [µg/mL] | IC50 (ug/ml), pseudovirus neutralization, TZM-bl assay [4] [µg/mL] | IC50 (ug/ml), pseudovirus neutralization, TZM-bl assay [5] [µg/mL] | IC50 (ug/ml), pseudovirus neutralization, TZM-bl assay [6] [µg/mL]
1 | 1503_H05 (PG16) (TCN-119) (antibody, V domains shown) VH: QEKLVESGGGVVQPGGSLRLSCLASGFTFHKYGMHWVRQAPGKGLEWVALISDDGMRKYHSDSMWGRVTISRDNSKNTLYLQFSSLKVEDTAMFFCAREAGGPIWHDDVKYYDFNDGYYNYHYMDVWGKGTIVTVSS VL: QSALTQPASVSGSPGQTITISCNGTRSDVGGFDSVSWYQQSPGKAPKVMVFDVSHRPSGISNRFSGSKSGNTASLTISGLHIEDEGDYFCSSLTDRSHRIFGGGTKVTVLG | > 1 | 0.001 | 0.02 | 0.003 | > 1 | 0.002
2 | 1456_A12 (PG16) (TCN-117) (antibody, V domains shown) VH: HEQLVEAGGGVVQPGGSLRLSCLASGFTFHKYGMHWVRQAPGKGLEWVALISDDGMRKYHSDSMWGRVTISRDNSKNTLYLQFSSLRVEDTAMFFCAREAGGPIWHDDVKYYDFNDGYYNYHYMDVWGKGTKVTVSS VL: QSALTQPASVSGSPGQTITISCNGTSRDVGGFDSVSWYQQSPGKAPKVMVFDVSHRPSGMSNRFSGSKSGNTASLTISGLHIEDEGDYFCSSLTDRSHRIFGGGTKLTVLG | > 1 | 0.001 | 0.05 | 0.005 | > 1 | 0.003
3 | 1489_I13 (PG16) (TCN-120) (antibody, V domains shown) VH: QEQLLESGGGVVQPGGSLRLSCLASGFTFHKYGMHWVRQAPGKGLEWVALISDDGMRKYHSNSMWGRVTISRDNSKNTLYLQFSSLKVEDTAMFFCAREAGGPIWHDDVKYYDFNDGYYNYHYMDVWGKGTTVTVSS VL: QSALTQPASVSGSPGQTITISCNGTSSDVGGFDSVSWYQQSPGKAPKVMVFDVSHRPSGISNRFSGSKSGNTASLTISGLHIEDEGDYFCSSLTDRSHRIFGGGTKVTVLG | > 1 | 0.002 | 0.03 | 0.008 | > 1 | 0.005
4 | 1469_M23 (PG16) (TCN-118) (antibody, V domains shown) VH: QEKLVESGGGVVQPGGSLRLSCLASGFTFHKYGMHWVRQAPGKGLEWVALISDDGMRKYHSDSMWGRVTISRDNSKNTLYLQFSSLKVEDTAMFFCAREAGGPIWHDDVKYYDFNDGYYNYHYMDVWGKGTTVTVSS VL: QSALTQPASVSGSPGQTITISCNGTRSDVGGFDSVSWYQQSPGRAPKVMVFDVSHRPSGISNRFSGSKSGNTASLTISGLHIEDEGDYFCSSLTDRSHRIFGGGTKLTVLG | > 1 | 0.002 | 0.05 | 0.005 | > 1 | 0.005
